Measurements: article PMC6277545, “Structural Basis for the Limited Response to Oxidative and Thiol-Conjugating Agents by Triosephosphate Isomerase From the Photosynthetic Bacteria Synechocystis” (Frontiers in Molecular Biosciences, 2018)
Where a chain is given by its changes, count along the chain named. Names and notes keep the numbering of the source.

B1: SyTPI (Synechocystis sp. PCC 6803 substr. Kazusa; C127A/C176S/C42A) (protein)
chain: MRKIIIAGNWKMHKTQAEAQAFLQGFKPLIEDAAESREVVLAVPFTDLSGMSQQLHGGRVRLGAQNVHWEASGAYTGEISAAMLTEIGIHYVVIGHSERRQYFGETDETANLRVLAAQKAGLIPILAVGESKAQRDAGETEQVIVDQVKKGLVNVDQSNLVIAYEPIWAIGTGDTSAATEANRVIGLIREQLTNSQVTIQYGGSVNANNVDEIMAQPEIDGALVGGASLEPQSFARIVNFQP
notes: full length, codon-optimised, E. coli BL21(DE3) delta-tpi; His tag cut by PreScission, extra Gly-Pro-His before Met1; homodimer 54 kDa
B2: SyTPI (Synechocystis sp. PCC 6803 substr. Kazusa) (protein)
chain: B1 chain with A42C, A127C, S176C
notes: as for B1
B3: SyTPI (Synechocystis sp. PCC 6803 substr. Kazusa; C42A) (protein)
chain: B1 chain with A127C, S176C
notes: as for B1
B4: SyTPI (Synechocystis sp. PCC 6803 substr. Kazusa; C127A/C42A) (protein)
chain: B1 chain with S176C
notes: as for B1
B5: SyTPI (Synechocystis sp. PCC 6803 substr. Kazusa; C127A/C176S) (protein)
chain: B1 chain with A42C
notes: as for B1
B6: SyTPI (Synechocystis sp. PCC 6803 substr. Kazusa; C176S/C42A) (protein)
chain: B1 chain with A127C
notes: as for B1
B7: SyTPI (Synechocystis sp. PCC 6803 substr. Kazusa; C127A) (protein)
chain: B1 chain with A42C, S176C
notes: as for B1

The proteins below were run on O=CC(O)COP(=O)(O)O (assay: coupled alpha-glycerophosphate dehydrogenase assay, A340). Conditions: 0.1 M TEA pH 7.4, 10 mM EDTA, 0.2 mM NADH, G3P 0-5 mM, G3P to DHAP.
Type: biochemical, Synechocystis sp. PCC 6803
Description: coupled alpha-glycerophosphate dehydrogenase assay, A340 on SyTPI

Row | Protein | Km [µM] | kcat [s⁻¹] | kcat/Km [M⁻¹ s⁻¹]
1 | B1 | 1400 ± 150 | 21.3 ± 1 | 15200
2 | B2 | 800 ± 20 | 1850 ± 43 | 2.31e+06
3 | B3 | 1010 ± 30 | 1780 ± 42 | 1.76e+06
4 | B4 | 1100 ± 30 | 1630 ± 53 | 1.48e+06
5 | B5 | 1190 ± 80 | 683 ± 6 | 573000
6 | B6 | 1460 ± 20 | 2130 ± 62 | 1.46e+06
7 | B7 | 1040 ± 80 | 1770 ± 56 | 1.71e+06
